The text below walks through data of PMC5260992.

The target of this assay is Pin1 (UniProt Q13526). Briefly: modified ELISA, plate-coated peptide. The settings on record: reference: non-phosphorylated peptide T184; sites T184.

As to “ATF1 (activating transcription factor 1) (from UniProt P18846) phosphorylated peptide pT184”, the “binding against the reference” value is recorded as “stronger”.
